The results in this text go back to patent publication US20170232076A1.

The target in assay [1] is cation-independent mannose-6-phosphate receptor (CI-M6PR), as used in the in vitro receptor binding assay (ELISA). The experiment in a line: in vitro CI-M6PR binding assay.
Assay [2] concerns the target cation-independent mannose-6-phosphate receptor (CI-M6PR) on cells overexpressing CI-M6PR. The experiment in a line: cellular uptake assay on cells overexpressing CI-M6PR, intracellular Naglu activity read-out.
For assay [3], the target named is cation-independent mannose-6-phosphate receptor (CI-M6PR), as used in the in vitro receptor binding assay (ELISA). The experiment in a line: ELISA, CI-M6PR binding, detection with antibody to human Naglu.

B1: Naglu-SapDC fusion protein (produced in HT-1080 cells) (enzyme)
chain: DEAREAAAVRALVARLLGPGPAADFSVSVERALAAKPGLDTYSLGGGGAARVRVRGSTGVAAAAGLHRYLRDFCGCHVAWSGSQLRLPRPLPAVPGELTEATPNRYRYYQNVCTQSYSFVWWDWARWEREIDWMALNGINLALAWSGQEAIWQRVYLALGLTQAEINEFFTGPAFLAWGRMGNLHTWDGPLPPSWHIKQLYLQHRVLDQMRSFGMTPVLPAFAGHVPEAVTRVFPQVNVTKMGSWGHFNCSYSCSFLLAPEDPIFPIIGSLFLRELIKEFGTDHIYGADTFNEMQPPSSEPSYLAAATTAVYEAMTAVDTEAVWLLQGWLFQHQPQFWGPAQIRAVLGAVPRGRLLVLDLFAESQPVYTRTASFQGQPFIWCMLHNFGGNHGLFGALEAVNGGPEAARLFPNSTMVGTGMAPEGISQNEVVYSLMAELGWRKDPVPDLAAWVTSFAARRYGVSHPDAGAAWRLLLRSVYNCSGEACRGHNRSPLVRRPSLQMNTSIWYNRSDVFEAWRLLLTSAPSLATSPAFRYDLLDLTRQAVQELVSLYYEEARSAYLSKELASLLRAGGVLAYELLPALDEVLASDSRFLLGSWLEQARAAAVSEAEADFYEQNSRYQLTLWGPEGNILDYANKQLAGLVANYYTPRWRLFLEALVDSVAQGIPFQQHQFDKNVFQLEQAFVLSKQRYPSQPRGDTVDLAKKIFLKYYPRWVAGSWGAPGGGGGAAAAAGGGGGGAPGGGGGAAAAAGGGGGGAPGGGGGAAAAAGGGGGGAPDGGFCEVCKKLVGYLDRNLEKNSTKQEILAALEKGCSFLPDPYQKQCDQFVAEYEPVLIEILVEVMDPSFVCLKIGACPSAHKPLLGTEKCIWGPSYWCQNTETAAQCNAVEHCKRHVWN
modifications: N-linked glycosylation site in the SapDC part marked (N); M6P content 0.75 mol/mol (M6P/Protein)
In general, Kd refers to a measure of binding affinity in units of concentration. As to B1, the results for the Kd in assay [1], in assay [2] and in assay [3] were 2.9 nM, 209 nM and 5.5 nM, respectively.

B2: Naglu-SapDC fusion protein produced in HT-1080 cells overexpressing GNPT (enzyme)
chain: DEAREAAAVRALVARLLGPGPAADFSVSVERALAAKPGLDTYSLGGGGAARVRVRGSTGVAAAAGLHRYLRDFCGCHVAWSGSQLRLPRPLPAVPGELTEATPNRYRYYQNVCTQSYSFVWWDWARWEREIDWMALNGINLALAWSGQEAIWQRVYLALGLTQAEINEFFTGPAFLAWGRMGNLHTWDGPLPPSWHIKQLYLQHRVLDQMRSFGMTPVLPAFAGHVPEAVTRVFPQVNVTKMGSWGHFNCSYSCSFLLAPEDPIFPIIGSLFLRELIKEFGTDHIYGADTFNEMQPPSSEPSYLAAATTAVYEAMTAVDTEAVWLLQGWLFQHQPQFWGPAQIRAVLGAVPRGRLLVLDLFAESQPVYTRTASFQGQPFIWCMLHNFGGNHGLFGALEAVNGGPEAARLFPNSTMVGTGMAPEGISQNEVVYSLMAELGWRKDPVPDLAAWVTSFAARRYGVSHPDAGAAWRLLLRSVYNCSGEACRGHNRSPLVRRPSLQMNTSIWYNRSDVFEAWRLLLTSAPSLATSPAFRYDLLDLTRQAVQELVSLYYEEARSAYLSKELASLLRAGGVLAYELLPALDEVLASDSRFLLGSWLEQARAAAVSEAEADFYEQNSRYQLTLWGPEGNILDYANKQLAGLVANYYTPRWRLFLEALVDSVAQGIPFQQHQFDKNVFQLEQAFVLSKQRYPSQPRGDTVDLAKKIFLKYYPRWVAGSWGAPGGGGGAAAAAGGGGGGAPGGGGGAAAAAGGGGGGAPGGGGGAAAAAGGGGGGAPDGGFCEVCKKLVGYLDRNLEKNSTKQEILAALEKGCSFLPDPYQKQCDQFVAEYEPVLIEILVEVMDPSFVCLKIGACPSAHKPLLGTEKCIWGPSYWCQNTETAAQCNAVEHCKRHVWN
modifications: increased M6P on N-linked glycans; M6P content 1.84 mol/mol (M6P/Protein)
In the case of B2, the Kd in assay [1] was 0.23 nM. In addition, in assay [2], the Kd is 14.9 nM and the fold higher affinity than Naglu-SapDC produced in cells expressing Naglu-SapDC alone is 14 fold.

B3: Naglu-CREG fusion protein (produced in HT-1080 cells) (enzyme)
chain: DEAREAAAVRALVARLLGPGPAADFSVSVERALAAKPGLDTYSLGGGGAARVRVRGSTGVAAAAGLHRYLRDFCGCHVAWSGSQLRLPRPLPAVPGELTEATPNRYRYYQNVCTQSYSFVWWDWARWEREIDWMALNGINLALAWSGQEAIWQRVYLALGLTQAEINEFFTGPAFLAWGRMGNLHTWDGPLPPSWHIKQLYLQHRVLDQMRSFGMTPVLPAFAGHVPEAVTRVFPQVNVTKMGSWGHFNCSYSCSFLLAPEDPIFPIIGSLFLRELIKEFGTDHIYGADTFNEMQPPSSEPSYLAAATTAVYEAMTAVDTEAVWLLQGWLFQHQPQFWGPAQIRAVLGAVPRGRLLVLDLFAESQPVYTRTASFQGQPFIWCMLHNFGGNHGLFGALEAVNGGPEAARLFPNSTMVGTGMAPEGISQNEVVYSLMAELGWRKDPVPDLAAWVTSFAARRYGVSHPDAGAAWRLLLRSVYNCSGEACRGHNRSPLVRRPSLQMNTSIWYNRSDVFEAWRLLLTSAPSLATSPAFRYDLLDLTRQAVQELVSLYYEEARSAYLSKELASLLRAGGVLAYELLPALDEVLASDSRFLLGSWLEQARAAAVSEAEADFYEQNSRYQLTLWGPEGNILDYANKQLAGLVANYYTPRWRLFLEALVDSVAQGIPFQQHQFDKNVFQLEQAFVLSKQRYPSQPRGDTVDLAKKIFLKYYPRWVAGSWGAPGGGGGAAAAAGGGGGGAPGGGGGAAAAAGGGGGGAPGGGGGAAAAAGGGGGGAPRGGRDHGDWDEASRLPPLPPREDAARVARFVTHVSDWGALATISTLEAVRGRPFADVLSLSDGPPGAGSGVPYFYLSPLQLSVSNLQENPYATLTMTLAQTNFCKKHGFPLCVHIMLSGTVTKVNETEMDIAKHSLFIRHPEMKTWPSSHNWFFAKLNITNIWVLDYFGGPKIVTPEEYYNVTVQ
modifications: N-linked glycosylation sites in the CREG part marked (N); binding is M6P-dependent
As to B3, the results for the Kd in assay [1] and in assay [3] were 2.5 nM and 1.25 nM, respectively.

B4: Naglu-CREG fusion protein produced in HT-1080 cells overexpressing GNPT (enzyme)
chain: DEAREAAAVRALVARLLGPGPAADFSVSVERALAAKPGLDTYSLGGGGAARVRVRGSTGVAAAAGLHRYLRDFCGCHVAWSGSQLRLPRPLPAVPGELTEATPNRYRYYQNVCTQSYSFVWWDWARWEREIDWMALNGINLALAWSGQEAIWQRVYLALGLTQAEINEFFTGPAFLAWGRMGNLHTWDGPLPPSWHIKQLYLQHRVLDQMRSFGMTPVLPAFAGHVPEAVTRVFPQVNVTKMGSWGHFNCSYSCSFLLAPEDPIFPIIGSLFLRELIKEFGTDHIYGADTFNEMQPPSSEPSYLAAATTAVYEAMTAVDTEAVWLLQGWLFQHQPQFWGPAQIRAVLGAVPRGRLLVLDLFAESQPVYTRTASFQGQPFIWCMLHNFGGNHGLFGALEAVNGGPEAARLFPNSTMVGTGMAPEGISQNEVVYSLMAELGWRKDPVPDLAAWVTSFAARRYGVSHPDAGAAWRLLLRSVYNCSGEACRGHNRSPLVRRPSLQMNTSIWYNRSDVFEAWRLLLTSAPSLATSPAFRYDLLDLTRQAVQELVSLYYEEARSAYLSKELASLLRAGGVLAYELLPALDEVLASDSRFLLGSWLEQARAAAVSEAEADFYEQNSRYQLTLWGPEGNILDYANKQLAGLVANYYTPRWRLFLEALVDSVAQGIPFQQHQFDKNVFQLEQAFVLSKQRYPSQPRGDTVDLAKKIFLKYYPRWVAGSWGAPGGGGGAAAAAGGGGGGAPGGGGGAAAAAGGGGGGAPGGGGGAAAAAGGGGGGAPRGGRDHGDWDEASRLPPLPPREDAARVARFVTHVSDWGALATISTLEAVRGRPFADVLSLSDGPPGAGSGVPYFYLSPLQLSVSNLQENPYATLTMTLAQTNFCKKHGFPLCVHIMLSGTVTKVNETEMDIAKHSLFIRHPEMKTWPSSHNWFFAKLNITNIWVLDYFGGPKIVTPEEYYNVTVQ
modifications: increased M6P on N-linked glycans (co-expression with GNPT)
Molecule B4 returned a Kd in assay [1] of 0.41 nM.
